Source: IntAct's records for PubMed 18583988

B1: Nibrin (Homo sapiens), O60934 (parent)
chain: MWKLLPAAGPAGGEPYRLLTGVEYVVGRKNCAILIENDQSISRNHAVLTANFSVTNLSQTDEIPVLTLKDNSKYGTFVNEEKMQNGFSRTLKSGDGITFGVFGSKFRIEYEPLVACSSCLDVSGKTALNQAILQLGGFTVNNWTEECTHLVMVSVKVTIKTICALICGRPIVKPEYFTEFLKAVESKKQPPQIESFYPPLDEPSIGSKNVDLSGRQERKQIFKGKTFIFLNAKQHKKLSSAVVFGGGEARLITEENEEEHNFFLAPGTCVVDTGITNSQTLIPDCQKKWIQSIMDMLQRQGLRPIPEAEIGLAVIFMTTKNYCDPQGHPSTGLKTTTPGPSLSQGVSVDEKLMPSAPVNTTTYVADTESEQADTWDLSERPKEIKVSKMEQKFRMLSQDAPTVKESCKTSSNNNSMVSNTLAKMRIPNYQLSPTKLPSINKSKDRASQQQQTNSIRNYFQPSTKKRERDEENQEMSSCKSARIETSCSLLEQTQPATPSLWKNKEQHLSENEPVDTNSDNNLFTDTDLKSIVKNSASKSHAAEKLRSNKKREMDDVAIEDEVLEQLFKDTKPELEIDVKVQKQEEDVNVRKRPRMDIETNDTFSDEAVPESSKISQENEIGKKRELKEDSLWSAKEISNNDKLQDDSEMLPKKLLLTEFRSLVIKNSTSRNPSGINDDYGQLKNFKKFKKVTYPGAGKLPHIIGGSDLIAHHARKNTELEEWLRQEMEVQNQHAKEESLADDLFRYNPYLKRRR

Variants of: B1
Details: with mdc1_human MDC1, Q14676
mdc1_human MDC1, Q14676, sequence (Q14676 whole entry): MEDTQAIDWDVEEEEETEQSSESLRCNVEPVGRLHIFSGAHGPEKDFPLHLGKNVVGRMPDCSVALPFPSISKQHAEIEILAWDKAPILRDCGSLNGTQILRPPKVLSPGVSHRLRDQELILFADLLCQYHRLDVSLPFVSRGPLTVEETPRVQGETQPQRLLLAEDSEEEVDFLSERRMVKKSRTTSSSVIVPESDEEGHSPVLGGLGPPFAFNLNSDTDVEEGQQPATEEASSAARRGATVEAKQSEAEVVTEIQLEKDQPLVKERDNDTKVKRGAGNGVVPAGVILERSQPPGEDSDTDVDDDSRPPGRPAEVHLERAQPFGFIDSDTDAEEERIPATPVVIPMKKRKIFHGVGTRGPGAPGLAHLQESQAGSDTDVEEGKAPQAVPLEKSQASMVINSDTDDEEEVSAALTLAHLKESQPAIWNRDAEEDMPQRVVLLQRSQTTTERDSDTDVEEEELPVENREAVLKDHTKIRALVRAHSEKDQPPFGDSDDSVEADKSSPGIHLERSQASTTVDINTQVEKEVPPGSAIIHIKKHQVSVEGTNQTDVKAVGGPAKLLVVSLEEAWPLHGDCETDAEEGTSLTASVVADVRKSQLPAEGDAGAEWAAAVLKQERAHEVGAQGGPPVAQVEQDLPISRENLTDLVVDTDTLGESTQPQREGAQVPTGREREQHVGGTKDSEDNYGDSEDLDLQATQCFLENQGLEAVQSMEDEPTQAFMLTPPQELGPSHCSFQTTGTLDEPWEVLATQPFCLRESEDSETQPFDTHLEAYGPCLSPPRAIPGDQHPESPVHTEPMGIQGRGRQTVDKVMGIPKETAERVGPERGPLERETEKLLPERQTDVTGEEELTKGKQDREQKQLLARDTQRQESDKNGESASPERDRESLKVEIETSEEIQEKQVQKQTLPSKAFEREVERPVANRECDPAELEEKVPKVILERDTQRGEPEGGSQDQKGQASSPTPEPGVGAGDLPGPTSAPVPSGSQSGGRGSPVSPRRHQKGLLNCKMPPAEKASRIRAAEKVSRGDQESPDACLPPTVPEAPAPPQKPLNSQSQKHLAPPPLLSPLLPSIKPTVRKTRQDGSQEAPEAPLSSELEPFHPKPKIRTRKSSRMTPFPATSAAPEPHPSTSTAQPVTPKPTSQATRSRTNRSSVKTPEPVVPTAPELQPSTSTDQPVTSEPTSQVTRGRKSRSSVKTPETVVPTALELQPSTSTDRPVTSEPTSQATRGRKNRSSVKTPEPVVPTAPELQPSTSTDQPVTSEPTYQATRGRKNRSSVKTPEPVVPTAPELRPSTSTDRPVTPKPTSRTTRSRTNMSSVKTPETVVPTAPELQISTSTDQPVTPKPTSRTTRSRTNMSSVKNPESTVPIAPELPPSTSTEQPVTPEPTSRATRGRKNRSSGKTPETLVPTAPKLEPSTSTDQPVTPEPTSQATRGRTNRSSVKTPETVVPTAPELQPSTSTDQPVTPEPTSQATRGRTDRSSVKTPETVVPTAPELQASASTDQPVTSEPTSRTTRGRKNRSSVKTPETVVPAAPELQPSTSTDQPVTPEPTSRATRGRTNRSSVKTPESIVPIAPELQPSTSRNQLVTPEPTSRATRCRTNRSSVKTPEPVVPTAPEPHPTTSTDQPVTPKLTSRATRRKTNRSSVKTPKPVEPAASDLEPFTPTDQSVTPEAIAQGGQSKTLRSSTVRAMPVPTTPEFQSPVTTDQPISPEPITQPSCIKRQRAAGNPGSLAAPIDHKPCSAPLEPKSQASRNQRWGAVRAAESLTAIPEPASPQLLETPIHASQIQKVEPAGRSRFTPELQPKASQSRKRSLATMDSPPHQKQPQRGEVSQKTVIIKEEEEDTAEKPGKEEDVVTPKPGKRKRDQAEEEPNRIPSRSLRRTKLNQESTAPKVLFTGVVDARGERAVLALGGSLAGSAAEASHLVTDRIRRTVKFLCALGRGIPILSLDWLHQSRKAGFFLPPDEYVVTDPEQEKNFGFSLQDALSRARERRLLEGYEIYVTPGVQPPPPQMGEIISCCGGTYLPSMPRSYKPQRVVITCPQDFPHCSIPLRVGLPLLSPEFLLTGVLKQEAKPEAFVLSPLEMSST

Row | Variant | effect of a mutation on the interaction
1 | H45A | disrupting interaction

Variants of: B1
Details: with mdc1_human MDC1, Q14676
Remark: another data set of the same source

Row | Variant | effect of a mutation on the interaction
2 | R28A | disrupting interaction

Variants of: B1
Details: with mdc1_human MDC1, Q14676
Remark: another data set of the same source

Row | Variant | effect of a mutation on the interaction
3 | K160M | disrupting interaction
